A word on the Kd: it is a measure of binding affinity in units of concentration.

For one assay, the target named is Hrd1-SBP (S. cerevisiae) (UniProt Q08109). In words: pull-down.
A further assay deals with T1, Hrd1-SBP (S. cerevisiae, UniProt Q08109 1-551).
T1 sequence (looked up): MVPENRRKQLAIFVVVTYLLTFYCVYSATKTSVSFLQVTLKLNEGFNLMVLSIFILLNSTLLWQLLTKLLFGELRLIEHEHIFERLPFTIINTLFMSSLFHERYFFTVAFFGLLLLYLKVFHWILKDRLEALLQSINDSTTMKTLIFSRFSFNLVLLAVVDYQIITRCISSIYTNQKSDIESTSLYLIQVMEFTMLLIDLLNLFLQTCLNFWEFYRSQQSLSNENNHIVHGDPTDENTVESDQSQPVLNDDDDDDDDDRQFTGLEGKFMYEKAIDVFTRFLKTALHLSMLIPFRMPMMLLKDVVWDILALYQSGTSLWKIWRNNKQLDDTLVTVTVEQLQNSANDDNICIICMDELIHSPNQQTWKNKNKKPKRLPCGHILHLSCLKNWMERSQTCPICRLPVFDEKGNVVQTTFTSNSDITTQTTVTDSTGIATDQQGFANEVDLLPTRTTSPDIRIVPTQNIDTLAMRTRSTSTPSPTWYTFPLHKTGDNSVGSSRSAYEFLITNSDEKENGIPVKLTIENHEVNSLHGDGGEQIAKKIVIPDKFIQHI
The assay can be described thus: pull-down.

Residue numbers refer to the chain shown, from its start.

Regarding “misfolded carboxypeptidase Y (CPY*) (from UniProt P00729 21-532) (natural protein)”, the Kd with Hrd1-SBP (S. cerevisiae) was found to be 20 nM.

B1: CPY*-TM2 (other)
chain: ISLQRPLGLDKDVLLQAAEKFGLDLDLDHLLKELDSNVLDAWAQIEHLYPNQVMSLETSTKPKFPEAIKTKKDWDFVVKNDAIENYQLRVNKIKDPKILGIDPNVTQYTGYLDVEDEDKHFFFWTFESRNDPAKDPVILWLNGGPGCSSLTGLFFELGPSSIGPDLKPIGNPYSWNSNATVIFLDQPVNVGFSYSGSSGVSNTVAAGKDVYNFLELFFDQFPEYVNKGQDFHIARESYAGHYIPVFASEILSHKDRNFNLTSVLIGNGLTDPLTQYNYYEPMACGEGGEPSVLPSEECSAMEDSLERCLGLIESCYDSQSVWSCVPATIYCNNAQLAPYQRTGRNVYDIRKDCEGGNLCYPTLQDIDDYLNQDYVKEAVGAEVDHYESCNFDINRNFLFAGDWMKPYHTAVTDLLNQDLPILVYAGDKDFICNWLGNKAWTDVLPWKYDEEFASQKVRNWTASITDEVAGEVKSYKHFTYLRVFNGGHMVPFDVPENALSMVNEWIHGGFSLMLLFFWIPLTLVLLLCFTLSNL
modifications: DyLight800 at the C-terminus, attached with sortase (GGGC-coupled fluorophore)
For B1, the Kd with Hrd1-SBP is roughly 30 nM.

B2: CPY-TM2 (other)
chain: B1 chain with R235G
modifications: DyLight800 at the C-terminus, attached with sortase (GGGC-coupled fluorophore)
Take B2: the dissociation constant Kd with Hrd1-SBP was roughly 110 nM.

B3: CPY-TM (other)
chain: ISLQRPLGLDKDVLLQAAEKFGLDLDLDHLLKELDSNVLDAWAQIEHLYPNQVMSLETSTKPKFPEAIKTKKDWDFVVKNDAIENYQLRVNKIKDPKILGIDPNVTQYTGYLDVEDEDKHFFFWTFESRNDPAKDPVILWLNGGPGCSSLTGLFFELGPSSIGPDLKPIGNPYSWNSNATVIFLDQPVNVGFSYSGSSGVSNTVAAGKDVYNFLELFFDQFPEYVNKGQDFHIAGESYAGHYIPVFASEILSHKDRNFNLTSVLIGNGLTDPLTQYNYYEPMACGEGGEPSVLPSEECSAMEDSLERCLGLIESCYDSQSVWSCVPATIYCNNAQLAPYQRTGRNVYDIRKDCEGGNLCYPTLQDIDDYLNQDYVKEAVGAEVDHYESCNFDINRNFLFAGDWMKPYHTAVTDLLNQDLPILVYAGDKDFICNWLGNKAWTDVLPWKYDEEFASQKVRNWTASITDEVAGEVKSYKHFTYLRVFNGGHMVPFDVPENALSMVNEWIHGGFSLNYGIFICYIAFNYIAGVFFYWLA
modifications: DyLight800 at the C-terminus, attached with sortase (GGGC-coupled fluorophore)
With B3, the dissociation constant Kd with Hrd1-SBP is roughly 120 nM.

Values taken from publication PMC4946995 (Cell, 2016).
